Experimental data taken from article doi:10.1101/2025.06.29.662139 (bioRxiv, 2025).

Target: human CD33 protein (R&D Systems) (Homo sapiens, UniProt P20138)
Test: SPR

Sequence of human CD33 protein (R&D Systems) (P20138 18-259): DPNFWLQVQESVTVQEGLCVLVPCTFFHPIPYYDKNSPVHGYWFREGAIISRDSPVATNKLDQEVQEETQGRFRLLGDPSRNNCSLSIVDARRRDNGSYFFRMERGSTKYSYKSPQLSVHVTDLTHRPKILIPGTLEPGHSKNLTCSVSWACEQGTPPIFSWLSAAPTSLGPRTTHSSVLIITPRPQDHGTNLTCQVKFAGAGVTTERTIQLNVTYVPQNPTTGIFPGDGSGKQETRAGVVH

Row | Binder | fold reduction in binding affinity (KD) against the lead candidate | binding result | fold loss of binding affinity against the parent antibody
1 | anti-CD33 antibody variant S11 (antibody, V domains shown) VH: QVQLVQSGAEVKKPGSSVKVSCKASGGIFSNHRISWVRQAPGQGLEWMGGIIPIFGTANYAQKFQGRVTITADESTSTAFMELSSLRSEDTAVYYCARAWADVFDIWGQGTMVTVSS VL: EIVLTQSPLSLPVTPGEPASISCRSSQSLLHSNGYNYLDWYLQKPGQSPQLLIYLGVNSVSGVPDRFSGSGSGTDFTLKISRVEAEDVGVYYCMQALQTPWTFGQGTKVEIK | 1.4 fold | – | –
2 | anti-CD33 antibody W96F (antibody, V domains shown) VH: QVQLVQSGAEVKKPGSSVKVSCKASGGIFSNHAISWVRQAPGQGLEWMGGIIPIFGTANYAQKFQGRVTITADESTSTAFMELSSLRSEDTAVYYCAREFADVFDIWGQGTMVTVSS VL: EIVLTQSPLSLPVTPGEPASISCRSSQSLLHSNGYNYLDWYLQKPGQSPQLLIYLGVNSVSGVPDRFSGSGSGTDFTLKISRVEAEDVGVYYCMQALQTPWTFGQGTKVEIK | – | no binding | > 1000 fold
